In patent US20240101635A1 (AKSTON BIOSCIENCES, published 2024):
Like-named read-outs stand apart in the source and are kept apart here.

B1: insulin-Fc fusion protein of SEQ ID NO: 112 (Fc fusion)
chain: FVNQHLCGSDLVEALALVCGERGFFYTDPTGGGPRRGIVEQCCHSICSLYQLENYCNGGGGSGGGGGEGPKCPVPEIPGAPSVFIFPPKPKDTLSISRTPEVTCLVVDLGPDDSNVQITWFVDNTEMHTAKTRPREEQFNSTYRVVSVLPILHQDWLKGKEFKCKVNSKSLPSAMERTISKAKGQPHEPQVYVLPPTQEELSENKVSVTCLIKGFHPPDIAVEWEITGQPEPENNYQTTPPQLDSDGTYFLYSRLSVDRSHWQRGNTYTCSVSHEALHSHHTQKSLTQSPG
notes: Feline IgG2 Fc, B16A insulin polypeptide; homodimer
B2: insulin-Fc fusion protein of SEQ ID NO: 106 (Fc fusion)
chain: FVNQHLCGSDLVEALYLVCGERGFFYTDPTGGGPRRGIVEQCCHSICSLYQLENYCNGGGGSGGGGGEGPKCPVPEIPGAPSVFIFPPKPKDTLSISRTPEVTCLVVDLGPDDSNVQITWFVDNTEMHTAKTRPREEQFNSTYRVVSVLPILHQDWLKGKEFKCKVNSKSLPSAMERTISKAKGQPHEPQVYVLPPTQEELSENKVSVTCLIKGFHPPDIAVEWEITGQPEPENNYQTTPPQLDSDGTYFLYSRLSVDRSHWQRGNTYTCSVSHEALHSHHTQKSLTQSPG
notes: homodimer
B3: insulin-Fc fusion protein of SEQ ID NO: 110 (Fc fusion)
chain: FVNQHLCGSDLVEALALVCGERGFFYTDPTGGGPRRGIVEQCCHSICSLYQLENYCNGGGGAGGGGGEGPKCPVPEIPGAPSVFIFPPKPKDTLSISRTPEVTCLVVDLGPDDSNVQITWFVDNTEMHTAKTRPREEQFNSTYRVVSVLPILHQDWLKGKEFKCKVNSKSLPSAMERTISKAKGQPHEPQVYVLPPTQEELSENKVSVTCLIKGFHPPDIAVEWEITGQPEPENNYQTTPPQLDSDGTYFLYSRLSVDRSHWQRGNTYTCSVSHEALHSHHTQKSLTQSPG
notes: homodimer
B4: insulin-Fc fusion protein of SEQ ID NO: 38 (Fc fusion)
chain: FVNQHLCGSHLVEALELVCGERGFHYGGGGGGSGGGGGIVEQCCTSTCSLDQLENYCGGGGGQGGGGQGGGGQGGGGGDCPKCPPPEMLGGPSIFIFPPKPKDTLSISRTPEVTCLVVDLGPDDSDVQITWFVDNTQVYTAKTSPREEQFNSTYRVVSVLPILHQDWLKGKEFKCKVNSKSLPSPIERTISKDKGQPHEPQVYVLPPAQEELSRNKVSVTCLIEGFYPSDIAVEWEITGQPEPENNYRTTPPQLDSDGTYFLYSRLSVDRSRWQRGNTYTCSVSHEALHSHHTQKSLTQSPG
notes: homodimer
B5: insulin-Fc fusion protein of SEQ ID NO: 40 (Fc fusion)
chain: FVNQHLCGSHLVEALALVCGERGFHYGGGGGGSGGGGGIVEQCCTSTCSLDQLENYCGGGGGQGGGGQGGGGQGGGGGDCPKCPPPEMLGGPSIFIFPPKPKDTLSISRTPEVTCLVVDLGPDDSDVQITWFVDNTQVYTAKTSPREEQFSSTYRVVSVLPILHQDWLKGKEFKCKVNSKSLPSPIERTISKDKGQPHEPQVYVLPPAQEELSRNKVSVTCLIEGFYPSDIAVEWEITGQPEPENNYRTTPPQLDSDGTYFLYSRLSVDRSRWQRGNTYTCSVSHEALHSHHTQKSLTQSPG
notes: homodimer
B6: insulin-Fc fusion protein of SEQ ID NO: 108 (Fc fusion)
chain: FVNQHLCGSDLVEALALVCGERGFFYTDPTGGGPRRGIVEQCCHSICSLYQLENYCNGGGGSGGGGDCPKCPPPEMLGGPSIFIFPPKPKDTLSISRTPEVTCLVVDLGPDDSDVQITWFVDNTQVYTAKTSPREEQFNSTYRVVSVLPILHQDWLKGKEFKCKVNSKSLPSPIERTISKDKGQPHEPQVYVLPPAQEELSRNKVSVTCLIEGFYPSDIAVEWEITGQPEPENNYRTTPPQLDSDGTYFLYSRLSVDRSRWQRGNTYTCSVSHEALHSHHTQKSLTQSPG
notes: about 49% homodimer

Key:
[1] = target: T1, human insulin receptor (human, UniProt P06213 28-1382); assay: competition with biotinylated RHI on IM-9 cells, flow cytometry, 4 C
T1 construct: whole, on cells; Endogenous receptor on IM-9 cells; also called IR
Procedure: (§1) 40 μL of an IM-9 cell suspension (8×10⁶ cells/mL) was then added to each well by multichannel pipette, mixed again gently and incubated on ice for 30 min to allow competitive binding on the insulin receptor on IM-9 cells. Cells were then washed twice with 275 μL of ice-cold FACS wash buffer (HBSS/2 mM EDTA/0.1% Na-azide+0.5% horse serum) by centrifuging the V-bottom plate at 3000 rpm for 3 min and aspirating the supernatant. Cells were then resuspended in 40 μL of FACS staining medium containing 1:100 diluted Streptavidin-PE (Life Technologies) for 20 min on ice. Cells were then washed once with 275 μL of ice-cold FACS buffer and finally fixed with 3% paraformaldehyde for 10 min at room temp. Cells were then washed once with 275 μL of ice-cold FACS buffer and resuspended in 250 μl of FACS buffer for analysis.
(§2) The V-bottom plates containing cells were then analyzed on a Guava 8-HT flow cytometer (Millipore). Biotinylated-RHI binding to insulin receptor was quantitated by the median fluorescence intensity (MFI) of the cells on the FACS FL-2 channel for each concentration of the test compound. Control wells were labeled only with biotinylated-RHI and were used to calculate the percent (%) inhibition resulting from each test compound concentration. The % inhibition by test compounds of biotinylated-RHI binding on IM-9 cells was plotted against log concentrations of the test compound, and the resulting IC50 values were calculated using GraphPad Prism (GraphPad Software, La Jolla, CA) for the test compounds. Lower IC50 values of the test compound therefore indicate greater levels of biotinylated-RHI inhibition at lower concentrations indicating stronger binding of the insulin-Fc fusion protein to the insulin receptor. A control compound, such as unlabeled recombinant human insulin (RHI) was also used as an internal standard to generate an RHI IC50 against which a given compound IC50 could be ratioed (IC50(compound)/IC50(RHI)). Lower IC50 ratios have more similar binding to RHI (stronger binding to insulin receptor), while higher IC50 ratios have weaker binding to the insulin receptor relative to RHI.

[2] = target: T1, human insulin receptor; assay: as above; remark: listed apart in the source
Procedure: as §1, §2

[3] = target: T1, human insulin receptor; assay: as above; remark: listed apart in the source
[4] = target: biotinylated canine FcRn (canine, UniProt A0A8I3PFR8 25-347, biotinylated (site not stated)); assay: ELISA pH 5.5, fusion protein coated, biotinylated canine FcRn titrated
Procedure: Insulin-Fc fusion proteins comprising Fc fragments of canine or feline origin were diluted to 10 μg/ml in sodium bicarbonate pH 9.6 buffer and coated in duplicate on Maxisorb ELISA plate strips for 1-2 hours at RT. The strips were then washed 4 times with PBST (PBS/0.1% Tween-20) buffer and blocked with Superblock blocking reagent (ThermoFisher). Strips for FcRn binding were then washed again twice with pH 5.5 MES/NaCl/Tween (50 mM MES/l50 mM NaCl/0.1% Tween-20) buffer before addition of the FcRn reagent (biotinylated canine FcRn; Immunitrack). […] Serial dilutions (1:3× dilutions) of biotinylated FcRn reagent were prepared in pH 5.5 MES/NaCl/Tween/10% Superblock buffer at concentrations from 1000 ng/ml to 0.45 ng/ml and loaded at 100 μL/well using a multichannel pipettor onto the strips coated with the insulin-Fc fusion protein compounds. The assay plate was then incubated for 1 hour at room temperature. FcRn binding strips were washed 4 times with pH 5.5 MES/NaCl/Tween buffer and then loaded with 100 μl/well […] diluted 1:10000 in pH 5.5 MES/NaCl/10% Superblock buffer. After incubating for 45 minutes, strips were washed again 4 times with pH 5.5 MES/NaCl/Tween buffer. TMB was finally added to reveal the bound biotinylated-canine FcRn reagent, and the color development was stopped with the ELISA stop reagent. The plate was read in an ELISA plate reader at a wavelength of 450 nm. The OD values (proportional to the binding of canine-FcRn to the insulin-Fc fusion protein test compounds) were plotted against log concentrations of FcRn added to each well to generate binding curves using GraphPad Prism software. EC50 values for each binding curve were calculated to compare between different compounds.

[5] = target: T2, biotinylated recombinant human Fc(gamma) receptor I (human, UniProt P12314 16-288, biotinylated (site not stated)); assay: ELISA, fusion protein coated, biotinylated rhFc(gamma)RI in solution, pH 7.4
T2 construct: Bought reagent, used as surrogate for canine/feline Fc(gamma)RI; also called rhFc(gamma) receptor I; Fc(gamma)RI
Procedure: The binding of insulin-Fc fusion proteins to the Fc(gamma) receptor I at pH 7.4 was conducted using an ELISA assay as follows. Since neither canine nor feline Fc(gamma) receptor I was not commercially available, human Fc(gamma) receptor I (i.e., rhFc(gamma) receptor I) was used as a surrogate mammalian receptor. Insulin-Fc compounds were diluted to 10 μg/mL in sodium bicarbonate buffer at pH 9.6 and coated on Maxisorp (Nunc) microtiter plates overnight at 4° C., after which the microplate strips were washed 5 times with PBST (PBS/0.05% Tween-20) buffer and blocked with Superblock blocking reagent (ThermoFisher). Serial dilutions of biotinylated rhFc(gamma) receptor I (recombinant human Fc(gamma)R-I; R&D Systems) were prepared in PBST/10% Superblock buffer from 6000 ng/mL to 8.2 ng/mL and loaded at 100 μL/well onto the microplate strips coated with insulin-Fc fusion protein. The microtiter plate was incubated for 1 hour at room temperature after which the microplate strips were washed 5 times with PBST and then loaded with 100 μL/well of streptavidin-HRP diluted 1:10000 in PBST/10% Superblock buffer. After incubating for 45 min, the microplate strips were washed again 5 times with PBST. TMB was added to reveal the bound Fc(gamma) receptor I proteins and stopped with ELISA stop reagent (Boston Bioproducts). The plate was read in an ELISA plate reader at 450 nm, and the OD values (proportional to the binding of rhFc(gamma) receptor I to insulin-Fc protein) were plotted against log concentrations of rhFc(gamma) receptor I added to each well to generate binding curves using GraphPad Prism software.
The insulin-Fc fusion protein of SEQ ID NO: 40 was synthesized in HEK293 cells according to the procedure of Example 1 and purified using a Protein A column according to Example 3. The structure of the insulin-Fc fusion protein was confirmed according to Example 4 by non-reducing and reducing CE-SDS, and the sequence was further identified by LC-MS with glycan removal according to Example 5. The protein yield was 174 mg/L at this stage. The % homodimer for the sequence was measured by size-exclusion chromatography according to Example 6 and was determined to be 98.9% resulting in a homodimer titer of 172 mg/L which meets the manufacturing design criteria.

T1 sequence (P06213 28-1382): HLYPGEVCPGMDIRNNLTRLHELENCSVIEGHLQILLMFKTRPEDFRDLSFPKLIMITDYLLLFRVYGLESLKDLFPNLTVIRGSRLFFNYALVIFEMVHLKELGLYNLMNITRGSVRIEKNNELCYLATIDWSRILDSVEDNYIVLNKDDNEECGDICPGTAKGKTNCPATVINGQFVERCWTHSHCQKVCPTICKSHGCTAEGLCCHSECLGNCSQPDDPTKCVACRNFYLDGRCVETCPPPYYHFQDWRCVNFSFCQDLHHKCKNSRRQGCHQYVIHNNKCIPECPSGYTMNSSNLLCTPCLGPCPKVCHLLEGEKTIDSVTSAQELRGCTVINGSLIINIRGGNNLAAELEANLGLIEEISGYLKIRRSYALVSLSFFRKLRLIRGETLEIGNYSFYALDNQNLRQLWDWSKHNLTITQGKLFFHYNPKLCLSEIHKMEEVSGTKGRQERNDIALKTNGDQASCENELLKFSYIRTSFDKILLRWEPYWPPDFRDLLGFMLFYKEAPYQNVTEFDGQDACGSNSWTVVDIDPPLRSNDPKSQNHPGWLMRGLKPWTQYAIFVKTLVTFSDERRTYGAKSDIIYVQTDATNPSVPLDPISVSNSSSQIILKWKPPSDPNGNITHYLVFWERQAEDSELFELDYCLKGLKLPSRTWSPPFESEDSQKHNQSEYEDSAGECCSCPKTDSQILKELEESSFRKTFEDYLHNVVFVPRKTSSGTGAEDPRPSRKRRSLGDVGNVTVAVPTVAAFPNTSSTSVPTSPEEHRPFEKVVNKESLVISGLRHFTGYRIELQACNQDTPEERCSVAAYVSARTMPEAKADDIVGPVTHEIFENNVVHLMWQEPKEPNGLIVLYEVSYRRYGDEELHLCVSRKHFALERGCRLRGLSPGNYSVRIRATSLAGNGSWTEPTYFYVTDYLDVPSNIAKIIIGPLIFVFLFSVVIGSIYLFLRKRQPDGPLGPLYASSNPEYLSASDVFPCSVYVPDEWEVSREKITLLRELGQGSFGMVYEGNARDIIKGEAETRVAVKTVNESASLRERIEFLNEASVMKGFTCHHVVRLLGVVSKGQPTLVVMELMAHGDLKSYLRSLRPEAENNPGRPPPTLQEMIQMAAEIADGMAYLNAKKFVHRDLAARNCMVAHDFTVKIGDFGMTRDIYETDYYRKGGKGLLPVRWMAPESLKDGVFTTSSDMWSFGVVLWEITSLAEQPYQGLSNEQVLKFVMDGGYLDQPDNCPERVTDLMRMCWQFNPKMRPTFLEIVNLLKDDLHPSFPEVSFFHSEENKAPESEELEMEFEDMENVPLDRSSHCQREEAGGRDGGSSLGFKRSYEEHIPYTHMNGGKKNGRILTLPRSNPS
biotinylated canine FcRn, sequence (A0A8I3PFR8 entry or part of it): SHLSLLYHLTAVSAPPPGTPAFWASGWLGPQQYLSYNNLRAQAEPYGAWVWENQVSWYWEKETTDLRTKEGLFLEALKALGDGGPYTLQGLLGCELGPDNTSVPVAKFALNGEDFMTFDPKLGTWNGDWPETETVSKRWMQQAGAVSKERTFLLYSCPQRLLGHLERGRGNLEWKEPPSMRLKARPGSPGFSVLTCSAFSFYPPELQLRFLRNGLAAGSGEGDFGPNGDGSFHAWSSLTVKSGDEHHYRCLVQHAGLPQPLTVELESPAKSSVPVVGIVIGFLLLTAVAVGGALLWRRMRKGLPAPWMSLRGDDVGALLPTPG
T2 sequence (P12314 16-288 limits assumed): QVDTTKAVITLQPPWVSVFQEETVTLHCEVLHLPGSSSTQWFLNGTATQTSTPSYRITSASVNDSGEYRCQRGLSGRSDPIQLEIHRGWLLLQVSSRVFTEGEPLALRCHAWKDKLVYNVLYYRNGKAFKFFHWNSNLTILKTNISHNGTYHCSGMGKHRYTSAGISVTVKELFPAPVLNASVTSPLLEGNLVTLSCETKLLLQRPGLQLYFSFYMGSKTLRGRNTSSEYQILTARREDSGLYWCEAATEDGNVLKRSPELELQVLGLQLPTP

Binder	IC50 [1] [nM]	IC50 [2] [nM]	IC50 [3] [nM]	EC50 [4] [µg/mL]	binding result [5]	fold less Fc(gamma) receptor activity than SEQ ID NO: 38 [5] [fold less]
B1	53	53				
B2	22	22				
B3	41					
B4			2400	1.55	binds	
B5			4640	8.16		~4
B6	62	62				
